Measurements: publication PMC3699407 (Nature biotechnology, 2012)

Target: the molecule itself
Test: SEC

B1: wild-type pea cytosolic ascorbate peroxidase (APX) (enzyme)
chain: GKSYPTVSPDYQKAIEKAKRKLRGFIAEKKCAPLILRLAWHSAGTFDSKTKTGGPFGTIKHQAELAHGANNGLDIAVRLLEPIKEQFPIVSYADFYQLAGVVAVEITGGPEVPFHPGREDKPEPPPEGRLPDATKGSDHLRDVFGKAMGLSDQDIVALSGGHTIGAAHKERSGFEGPWTSNPLIFDNSYFTELLTGEKDGLLQLPSDKALLTDSVFRPLVEKYAADEDVFFADYAEAHLKLSELGFAEA
stoichiometry N: 2
